Four molecules from US20240150449A1 can be followed below.

In experiment [1] the target is recombinant in vitro phosphorylated full-length TDP-43 (TDP-43-MBP phosphorylated with casein kinase 1 delta) (human) (UniProt Q13148). Briefly: SPR Biacore 8K, 25 C, in vitro phosphorylated TDP-43 amine-coupled on CM5, IgG as analyte (avidity).
For experiment [2] the target is unchanged. The experiment is described as follows: SPR Biacore 8K, 25 C, in vitro phosphorylated TDP-43 amine-coupled on CM5, Fab as analyte. For orientation: Surface plasmon resonance follows binding to a sensor surface in real time, without labels.

B1: antibody 31F3 (human IgG) (antibody, V domains shown)
VH: QVQLEQSGAEVKRPGASVKVSCKASGYTFTGYYLHWVRQAPGQGLEWMGRINPGSGGTKYAQKFQGRVSMTRDTSISTAYMEVNRLRPDDTAVYYCARYQVYGERGRYMDVWGKGTTVTVSS
VL: QSALTQPASVSGSPGQSITISCTGTSSDVGTYDLVSWYQQHPGKAPKLIIYEDNKRPSGLSNRFSGSKSGNTASLTISGLQADDEADYYCCSYAAISTLIFGGGTKVTVL
The koff is a measure of how fast the partners let go of each other. In general, kon refers to the rate constant with which the complex forms. Turning to B1, in experiment [1], the Kd came out at 0.01 nM, the dissociation rate constant (koff) is 0.0003 s⁻¹ and the association rate constant (kon) stood at 2.5e+07 M⁻¹ s⁻¹.

B2: 30E1 Fab (Fab, V domains shown)
VH: QVQLVQSGAEVKKPGASVKVSCKTSGYTFTDYYLHWVRQAPGQGLEWMGRINPNSGNTNYAQKFQGRVSVTRDTSISTAYMELSRLSSDDTAVYFCARVKIVVLRSTPTLYYFDYWGQGTLVTVSS
VL: QSALTQPASVSGSPGQSITISCTGTSSDVGTYDLVSWYQQHPGKAPKVMIYEGSKRPSGVSNRFSGSKSGNTASLTISGLQAEDEADYYCCSYAGTSTLVFGGGTKVTVL
For B2, in experiment [2], the Kd worked out at 34 nM, the off-rate (koff) is 0.11 s⁻¹ and the kon is 3.1e+06 M⁻¹ s⁻¹.

B3: 31F3 Fab (Fab, V domains shown)
VH: QVQLEQSGAEVKRPGASVKVSCKASGYTFTGYYLHWVRQAPGQGLEWMGRINPGSGGTKYAQKFQGRVSMTRDTSISTAYMEVNRLRPDDTAVYYCARYQVYGERGRYMDVWGKGTTVTVSS
VL: QSALTQPASVSGSPGQSITISCTGTSSDVGTYDLVSWYQQHPGKAPKLIIYEDNKRPSGLSNRFSGSKSGNTASLTISGLQADDEADYYCCSYAAISTLIFGGGTKVTVL
On to B3, for which, in experiment [2], the Kd came to 2.5 nM, the off-rate (koff) was 0.017 s⁻¹ and the kon was 6.8e+06 M⁻¹ s⁻¹.

B4: antibody 30E1 (human IgG) (antibody, V domains shown)
VH: QVQLVQSGAEVKKPGASVKVSCKTSGYTFTDYYLHWVRQAPGQGLEWMGRINPNSGNTNYAQKFQGRVSVTRDTSISTAYMELSRLSSDDTAVYFCARVKIVVLRSTPTLYYFDYWGQGTLVTVSS
VL: QSALTQPASVSGSPGQSITISCTGTSSDVGTYDLVSWYQQHPGKAPKVMIYEGSKRPSGVSNRFSGSKSGNTASLTISGLQAEDEADYYCCSYAGTSTLVFGGGTKVTVL
For B4, in experiment [1], the Kd amounted to 0.02 nM, the koff was 0.00061 s⁻¹ and the kon is 3e+07 M⁻¹ s⁻¹.
